Where a chain is given by its changes, count along the chain named.
B1: His-tagged wild-type human BAF, recombinant (natural protein, UniProt O75531 1-89, looked up)
chain: MTTSQKHRDFVAEPMGEKPVGSLAGIGEVLGKKLEERGFDKAYVVLGQFLVLKKDEDLFREWLKDTCGANAKQSRDCFGCLREWCDAFL
B2: His-tagged human BAF mutant 41E, recombinant (natural protein, UniProt O75531 1-89, looked up)
chain: B1 chain with K41E
B3: His-tagged human BAF mutant 14A, recombinant (natural protein, UniProt O75531 1-89, looked up)
chain: B1 chain with P14A
B4: His-tagged human BAF mutant 53E, recombinant (natural protein, UniProt O75531 1-89, looked up)
chain: B1 chain with K53E
B5: His-tagged human BAF mutant 47E, recombinant (natural protein, UniProt O75531 1-89, looked up)
chain: B1 chain with G47E

Target: the molecule itself
Test: SEC

Stoichiometry N, 2:
B1
B2
B3
B4
B5

Source: paper PMC2173821 (The Journal of Cell Biology, 2002)
